In the supplement of paper PMC9170038:

tested on: MS2 coat protein; experiment: apparent KD of MS2 coat protein; higher = weaker reporter binding; settings: Eterna round: R107; input ligand: theophylline 2 mM
In short: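 Apparent KD per design is the median of normalised cluster binding-curve fits. Designed RNA switches transcribed on-chip from Illumina sequencing clusters were titrated with SNAP-549-labelled MS2 coat protein in twofold steps from 0.7 or 1.5 nM to 3 µM, with 0.8–1.5 h down to 10–20 min per step. Buffer: 100 mM Tris-HCl pH 7.5, 80 mM KCl, 4 mM MgCl2, without or with constant ligand.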

Q: Which “apparent KD of MS2 coat protein” value does the source give for “ACAUGAGGAUCACCCAUGUAGAAAGAUCCUCGAGGACCGGUACGGCCGCCACUCGAGUGGCAGUGUGUGCAGAAAAUGCGCGCGC” here?
A: 81.4 nM

Q: “AAGACAUGAGGAUCACCCAUGUCGUGUGAACGAGGACCGGUACGGCCGCCACUCGUUUGAAAAUAAACGAAUGCGGCCUGGGAAA [Exclusion Tryp A GF1]” was tested. Which “apparent KD of MS2 coat protein” value did it give?
A: 12.3 nM

Q: “GUAUAUUAUAGAAGGAGCGUCGAAAAUGGGUAAACAUGAGGAUCACCCAUGUAAAGGGAACGACAGGUAGGUCGCUAUAAUAUAC [AstromonsSSArgB#14]” was tested. Which “apparent KD of MS2 coat protein” value did it give?
A: 311 nM

Q: How did the “apparent KD of MS2 coat protein” value turn out when “AGACAUGAGGAUCACCCAUGUAGCAUGGAUACCAGAUGCAGAUUUAUCCCUUGGCAGCUGUGGUAAAGUGAUGCAUUGCUCCUAG [Exclusion - Theophylline A (Freestyle 6)]” was run?
A: 27.1 nM

Q: For “CCUGAUGAGUCGGCCGCCACUCCAGUUGUAUUACAGGUUUUCGUAGACAUGAGGAUCACCCAUGUGAGGACCGGGACACACACAG [theeternabot_exclusion_MS2_Trp_B_21]”, which “apparent KD of MS2 coat protein” value is on record?
A: 17.4 nM

Q: Which “apparent KD of MS2 coat protein” value does the source give for “CGACUGUAAAGUCGACCGGUCAUCAAUAAUCGAGGACCGGUACGGCCGCCACUCGAUGUGAUUUCACAUGAGGAUCACCCAUGUA [Tryptophan A 17]” here?
A: 29.1 nM

Q: Which “apparent KD of MS2 coat protein” value does the source give for “UUGGGUUUGUGAAGGAGCGGGAAAGUUAUAUAGUUAAUCCUAACAUGAGGAUCACCCAUGUCCCAGGUAGGUCGCGCGGGUUUGG [12.P]” here?
A: 55 nM

Q: For “UAAUGCAGGUCGGCCGCCACUACACACAUGAGGAUCACCCAUGUAGUUACUGGGUGAAGUGGCAGUAGGACCGGGACCUGCAUAA [Brourd01]”, which “apparent KD of MS2 coat protein” value is on record?
A: 873 nM

Q: Which “apparent KD of MS2 coat protein” value does the source give for “CAGGUCAGGGCGGCCGCCACUGUGGCUACGGUACAUGAGGAUCACCCAUGUUUGUGGUUGAUCUACAGGACCGGGCCCUAACACG [Beabe]” here?
A: 757 nM

Q: Which “apparent KD of MS2 coat protein” value does the source give for “GUCUUGGGAUCGGCCGCCACUACAUGAGGAUCACCCAUGUGGACAAAUAGGGUUGUUAAGCUCGGUAGGACCGGGAUUCGGACAU [Oncetexeza]” here?
A: 27.3 nM

Q: How did the “apparent KD of MS2 coat protein” value turn out when “GGGACAUCGGGAAGGAGCGCAUCCAAACCACACAUGAGGAUCACCCAUGUAUAAAUAUGCAUGCAGGUAGGUCGCCCGGUGUCUC [Ersoatus]” was run?
A: 117 nM

same assay, conditions: Eterna round: R107; input ligand: tryptophan 2.4 mM

Q: With “GUAUACAUGAGGAUCACCCAUGUACCAGAAGGAGCGCUGGAAACAGCAGGUAGGUCGCUGGUAGGUCCUCUAUCUAGACGUUCUU [EAA NP+V+V2 #6]” as the sequence, how does the “apparent KD of MS2 coat protein” value read?
A: 110 nM

Q: How did the “apparent KD of MS2 coat protein” value turn out when “AUACAUGAGGAUCACCCAUGUAUGGAUGAAGGAGCGACCAGAGGGUCAGGUAGGUCGCAUCACAUGAGGAUCACCCAUGUAGAAA [DOUBLE!!! :-D #11]” was run?
A: 24 nM

Q: For “GUCGUGGUCGGAAGGAGCGACAUGAGGAUCACCCAUGUCUCCCGUUAUGGGAGUUCCUUAGGUCAGGUAGGUCGCCGACUGCGGC [#1 Exclusion - Arginine B Attempt #23 (Inspired by Omei)]”, which “apparent KD of MS2 coat protein” value is on record?
A: 181 nM

Q: “UACAUGAGGAUCACCCAUGUAUUGCCGGUACGAGGACCGGUACGGCCGCCACUCGGGACAUGAGGAUCACCCAUGUGCUGCUAUU [Same State Trypophan A GF 23]” was tested. Which “apparent KD of MS2 coat protein” value did it give?
A: 45.8 nM

Q: “CGAAAGCUCCUUAUGUGCUUUCGACUGGAAGGAGCGAGCGAAAGCUCAGGUAGGUCGCCAGAAACAUGAGGAUCACCCAUGUAAU [(A)''-(M)'-(A)'(Arg1)-(Arg2)-(M1)-(M2)_Design9]” was tested. Which “apparent KD of MS2 coat protein” value did it give?
A: 18.5 nM

Q: “UACAUGAGGAUCACCCAUGUAUACAUGGAUACCAGCGACAAUGGGCGCCCUUGGCAGCUAGUGGAUGGAGGGUGGCCACAGUACU [Exclusion Theophyline A GF5]” was tested. Which “apparent KD of MS2 coat protein” value did it give?
A: 42.7 nM

Q: For “AAUAUAAGUGUAAUUAUAUUUAUAUCUGAUACCAGACUCUCAUGUGUCCCUUGGCAGCAGUUACAUGAGGAUCACCCAUGUAUUA [JR_Nu_SSTheophyA_Sub025]”, which “apparent KD of MS2 coat protein” value is on record?
A: 73.7 nM

Q: Which “apparent KD of MS2 coat protein” value does the source give for “UGUAUGUGAUCUGAUACCAGUCCAACUGGUAAAUCAUGAGGAUCACCCAUGGAAAAUUGGGACCCUUGGCAGCAGAUCGCAUACU” here?
A: 1070 nM

Q: “GGACUAACCAGAAGGAGCGACACAAGCAGAAACUGCAAUCCUCCGCACGAGGAUCACCCGUGUCAGGUAGGUCGCUGGUUAGUCG [ArgBX 28]” was tested. Which “apparent KD of MS2 coat protein” value did it give?
A: 67.4 nM

Q: How did the “apparent KD of MS2 coat protein” value turn out when “CAUACUUGAUCCUAUGAGCCUAUUUGUGAUACCAGCAUCUAAAUUUGCCCUUGGCAGCACUAACAUGAGGAUCACCCAUGUUAUA [JR_Nu_ExcTheophyA_Sub028]” was run?
A: 37 nM

Q: With “AUGUCAUUGGUGUAGCUGUGAAGUGGCGAUACCAGCGUGGAAACACGCCCUUGGCAGCGCCAAAACAUGAGGAUCACCCAUGUUA [#23 Exclusion-TheophyllineA]” as the sequence, how does the “apparent KD of MS2 coat protein” value read?
A: 22.9 nM

Q: With “UUUUAGCAUCGAAGGAGCGCUGGUGAAACUGACUAUGGAACAUGAGGAUCACCCAUGUGCUAGCAGGUAGGUCGCGAUGCUAUUU [SSAB NP+V+V2 #10]” as the sequence, how does the “apparent KD of MS2 coat protein” value read?
A: 14.9 nM

Q: Which “apparent KD of MS2 coat protein” value does the source give for “GCUAGGUCUACGGCCGCCACUAGACGUGGGUAAGACAUGAGGAUCACCCAUGUACUACAGGCGCAUAGGACCGGGUAGACCUAGC [SSTB NP+V+V2 #11 Same Structure]” here?
A: 13.2 nM

Q: How did the “apparent KD of MS2 coat protein” value turn out when “AUAACAUGAGGAUCACCCAUGUAAGCUGAAGGAGCGGACGAAAGUCCAGGUAGGUCGCAGCACUCCUUCAACAUGGGAGAGGGAG [(M1)-(M2)-(Arg1)-(Arg2)-(A)'-(M)'-(A)''_Design1]” was run?
A: 53.2 nM

Q: How did the “apparent KD of MS2 coat protein” value turn out when “CAGCACAUGAGGAUCACCCAUGUGAGGGAUACCAGCUCAGGCGUGGGCCCUUGGCAGCUCUCUGGCUGACGAAAGUCAGCCUGUG [#20 SameState-TheophyllineA]” was run?
A: 13.6 nM

Q: “UGUAUGUGAUCUGAUACCAGUCCAACUGGUAAAGCAUGAGGAACACCCAUGCAAAAUUGGGACCCUUGGCAGCAGAUCGCAUACU” was tested. Which “apparent KD of MS2 coat protein” value did it give?
A: 278 nM

Q: “CGAAUACCAAUUGAUACCAGCAUGUUAACAUGAGGAUCACCCAUGUUAAGGAUAACAUAAUGCCCUUGGCAGCAACGUAAAUUCG [Aa]” was tested. Which “apparent KD of MS2 coat protein” value did it give?
A: 19.6 nM

Q: With “GGAUAGGACAGAAGGAGCGUGAGAUGCAAAGCUUCAUUCCUCACAUGAGGAUCACCCAUGUCACAGGUAGGUCGCUGUCCUAUCG [#19 Exclusion - Arginine B]” as the sequence, how does the “apparent KD of MS2 coat protein” value read?
A: 78.9 nM

Q: Which “apparent KD of MS2 coat protein” value does the source give for “GGGAGAUGAAAAGAUUGAGCUAAAACAGAAGGAGCGUGAAUUAACACAGGUAGGUCGCUGACAACAUGAGGAUCACCCAUGUAUU [Same State Arginine A GF4]” here?
A: 21.4 nM

Q: For “AAAUGAGGAUCACCCAUGUAACAACGGGAAGGAGCGCCAAACAAGGCAGGUAGGUCGCCCACAUGAGGAUCACCCAUGUGUUGGG [Exclusion Arginine A GF 28]”, which “apparent KD of MS2 coat protein” value is on record?
A: 177 nM

Q: For “ACAUGAGGAUCACCCAUGUAGAAAGAUCCUCGAGGACCGGUACGGCCGCCACUCGAGUGGCAGUGUGUGCAGAAAAUGCGCGCGC”, which “apparent KD of MS2 coat protein” value is on record?
A: 14.2 nM

Q: Which “apparent KD of MS2 coat protein” value does the source give for “GUAUAUUAUAGAAGGAGCGUCGAAAAUGGGUAAACAUGAGGAUCACCCAUGUAAAGGGAACGACAGGUAGGUCGCUAUAAUAUAC [AstromonsSSArgB#14]” here?
A: 220 nM

Q: For “UAAAUAUUACUGGGUAAGGUAUAAAUAGAUACCAGCCAGAUAACUGGCCCUUGGCAGCUAAACAUGAGGAUCACCCAUGUAUAAU [TheoAS 20 #OpenEnded #Ms2Late]”, which “apparent KD of MS2 coat protein” value is on record?
A: 33.2 nM

Q: For “AGACAUGAGGAUCACCCAUGUAGCAUGGAUACCAGAUGCAGAUUUAUCCCUUGGCAGCUGUGGUAAAGUGAUGCAUUGCUCCUAG [Exclusion - Theophylline A (Freestyle 6)]”, which “apparent KD of MS2 coat protein” value is on record?
A: 23.8 nM

Q: For “CCUGAUGAGUCGGCCGCCACUCCAGUUGUAUUACAGGUUUUCGUAGACAUGAGGAUCACCCAUGUGAGGACCGGGACACACACAG [theeternabot_exclusion_MS2_Trp_B_21]”, which “apparent KD of MS2 coat protein” value is on record?
A: 17.2 nM

Q: “UUGGGUUUGUGAAGGAGCGGGAAAGUUAUAUAGUUAAUCCUAACAUGAGGAUCACCCAUGUCCCAGGUAGGUCGCGCGGGUUUGG [12.P]” was tested. Which “apparent KD of MS2 coat protein” value did it give?
A: 47.3 nM

Q: How did the “apparent KD of MS2 coat protein” value turn out when “CAGGUCAGGGCGGCCGCCACUGUGGCUACGGUACAUGAGGAUCACCCAUGUUUGUGGUUGAUCUACAGGACCGGGCCCUAACACG [Beabe]” was run?
A: 126 nM

Q: For “GUCUUGGGAUCGGCCGCCACUACAUGAGGAUCACCCAUGUGGACAAAUAGGGUUGUUAAGCUCGGUAGGACCGGGAUUCGGACAU [Oncetexeza]”, which “apparent KD of MS2 coat protein” value is on record?
A: 111 nM

Q: For “GGGACAUCGGGAAGGAGCGCAUCCAAACCACACAUGAGGAUCACCCAUGUAUAAAUAUGCAUGCAGGUAGGUCGCCCGGUGUCUC [Ersoatus]”, which “apparent KD of MS2 coat protein” value is on record?
A: 121 nM
